# Measurements as given in patent US20220315554A1, “COMPOUNDS COMPRISING A […] LIGAND AND USE THEREOF” (priority 2019, published 2022).
# Numbered stars: 1 amine (or outer) side, 2 acyl side, 3 side chain; on linkers, the order of the positions; unused ones are H or OH. Bridge positions count the residues as written; N and C are the ends. Ends that are not written are not given here. * marks the point of attachment. Ttds = 1,13-diamino-4,7,10-trioxatridecan-succinamic acid, NCCCOCCOCCOCCCNC(=O)CCC(=O)*; tMeBn(DOTA-AET) = Cys-Cys bridge (thioethers) carrying DOTA-AET; tMeBn(DOTA-PP) = Cys-Cys bridge (thioethers) carrying DOTA-PP; DOTA = O=C(O)CN1CCN(CC(=O)O)CCN(CC(=O)*)CCN(CC(=O)O)CC1; mXylylene = c1cc(C[*:1])cc(C[*:2])c1; tMeBn(LuDOTA-AET) = not defined here; 2Lut = Cys-Cys bridge (thioethers); 3Lut = Cys-Cys bridge (thioethers); Pentanesulfonyl = CCCCCS(=O)(=O)*; PentylNH‑urea = CCCCCNC(=O)*; Hexanoyl = CCCCCC(=O)*
# T1: Recombinant human FAP (R&D systems, #3715-SE) (human)
# T1 sequence: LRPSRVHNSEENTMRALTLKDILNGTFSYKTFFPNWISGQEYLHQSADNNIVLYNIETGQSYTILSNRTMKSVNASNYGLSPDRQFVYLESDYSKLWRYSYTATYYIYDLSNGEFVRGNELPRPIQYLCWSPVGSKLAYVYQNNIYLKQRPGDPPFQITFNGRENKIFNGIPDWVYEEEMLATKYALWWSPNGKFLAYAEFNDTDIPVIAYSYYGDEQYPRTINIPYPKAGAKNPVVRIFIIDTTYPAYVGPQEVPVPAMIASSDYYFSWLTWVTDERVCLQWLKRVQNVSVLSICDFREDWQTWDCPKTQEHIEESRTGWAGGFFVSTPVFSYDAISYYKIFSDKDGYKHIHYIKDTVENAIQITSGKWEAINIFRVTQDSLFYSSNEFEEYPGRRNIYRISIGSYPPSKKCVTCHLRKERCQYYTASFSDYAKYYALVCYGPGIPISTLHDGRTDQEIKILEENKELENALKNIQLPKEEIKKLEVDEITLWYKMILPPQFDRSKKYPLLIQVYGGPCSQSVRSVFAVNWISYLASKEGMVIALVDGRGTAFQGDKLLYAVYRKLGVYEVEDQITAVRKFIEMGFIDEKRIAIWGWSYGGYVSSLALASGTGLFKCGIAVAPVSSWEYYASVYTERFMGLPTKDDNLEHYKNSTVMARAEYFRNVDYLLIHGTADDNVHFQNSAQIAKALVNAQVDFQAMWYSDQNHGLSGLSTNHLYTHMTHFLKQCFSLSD
# B1: Hex-[Cys(3MeBn)-Pro-Pro-Thr-Glu-Phe-Cys]-Asp-His-Phe-Arg-Asp-NH2 (peptide)
# peptide: Hexanoyl-CPPTEFCDHFRD-NH2
# modifications: linker 1-7 via mXylylene
# SMILES: CCCCCC(=O)N[C@H]1CSCc2cccc(c2)CSC[C@@H](C(=O)N[C@@H](CC(=O)O)C(=O)N[C@@H](Cc2c[nH]cn2)C(=O)N[C@@H](Cc2ccccc2)C(=O)N[C@@H](CCCNC(=N)N)C(=O)N[C@@H](CC(=O)O)C(N)=O)NC(=O)[C@H](Cc2ccccc2)NC(=O)[C@H](CCC(=O)O)NC(=O)[C@H]([C@@H](C)O)NC(=O)[C@@H]2CCCN2C(=O)[C@@H]2CCCN2C1=O
# B2: DOTA-Ttds-Leu-[Cys(3MeBn)-Pro-Pro-Thr-Glu-Phe-Cys]-Asp-His-Phe-Arg-Asp-NH2 (peptide)
# peptide: {DOTA-Ttds}-LCPPTEFCDHFRD-NH2
# modifications: linker 2-8 via mXylylene
# B3: Ac-[Cys(3MeBn)-Pro-Pro-Thr-Glu-Phe-Cys]-Asp-His-Phe-Arg-Asp-NH2 (peptide)
# peptide: Ac-CPPTEFCDHFRD-NH2
# modifications: linker 1-7 via mXylylene
# SMILES: CC(=O)N[C@H]1CSCc2cccc(c2)CSC[C@@H](C(=O)N[C@@H](CC(=O)O)C(=O)N[C@@H](Cc2c[nH]cn2)C(=O)N[C@@H](Cc2ccccc2)C(=O)N[C@@H](CCCNC(=N)N)C(=O)N[C@@H](CC(=O)O)C(N)=O)NC(=O)[C@H](Cc2ccccc2)NC(=O)[C@H](CCC(=O)O)NC(=O)[C@H]([C@@H](C)O)NC(=O)[C@@H]2CCCN2C(=O)[C@@H]2CCCN2C1=O
# B4: Hex-[Cys(3MeBn)-Pro-Pro-Thr-Glu-Phe-Cys]-Asp-NH2 (peptide)
# peptide: Hexanoyl-CPPTEFCD-NH2
# modifications: linker 1-7 via mXylylene
# SMILES: CCCCCC(=O)N[C@H]1CSCc2cccc(c2)CSC[C@@H](C(=O)N[C@@H](CC(=O)O)C(N)=O)NC(=O)[C@H](Cc2ccccc2)NC(=O)[C@H](CCC(=O)O)NC(=O)[C@H]([C@@H](C)O)NC(=O)[C@@H]2CCCN2C(=O)[C@@H]2CCCN2C1=O
# B5: Hex-[Cys(3MeBn)-Pro-Pro-Thr-Gln-Phe-Cys]-Asp-Ape-NH-DOTA' (peptide)
# peptide: Hexanoyl-CPPTQFCD
# modifications: linker 1-7 via mXylylene; not fully specified (C-terminus); printed as Hex-[Cys(3MeBn)-Pro-Pro-Thr-Gln-Phe-Cys]-Asp-Ape(DOTA)
# B6: Hex-[Cys(3MeBn)-Pro-Pro-Thr-Gln-Phe-Cys]-Asp-Ttds-Ape-NH-DOTA' (peptide)
# peptide: Hexanoyl-CPPTQFCD
# modifications: linker 1-7 via mXylylene; not fully specified (C-terminus); printed as Hex-[Cys(3MeBn)-Pro-Pro-Thr-Gln-Phe-Cys]-Asp-Ttds-Ape(DOTA)
# B7: PentylNH-urea-[Cys(3MeBn)-Pro-Pro-Thr-Gln-Phe-Cys]-Asp-NH2 (peptide)
# peptide: {PentylNH‑urea}-CPPTQFCD-NH2
# modifications: linker 1-7 via mXylylene
# SMILES: CCCCCNC(=O)N[C@H]1CSCc2cccc(c2)CSC[C@@H](C(=O)N[C@@H](CC(=O)O)C(N)=O)NC(=O)[C@H](Cc2ccccc2)NC(=O)[C@H](CCC(N)=O)NC(=O)[C@H]([C@@H](C)O)NC(=O)[C@@H]2CCCN2C(=O)[C@@H]2CCCN2C1=O
# B8: Hex-[Cys(tMeBn(DOTA-AET))-Pro-Pro-Thr-Gln-Phe-Cys]-Asp-NH2 (peptide)
# peptide: Hexanoyl-CPPTQFCD-NH2
# modifications: linker 1-7 via tMeBn(DOTA-AET)
# B9: Hex-[Cys(3MeBn)-Pro-Pro-Thr-Gln-Phe-Cys]-Asp-NH2 (peptide)
# peptide: Hexanoyl-CPPTQFCD-NH2
# modifications: linker 1-7 via mXylylene
# SMILES: CCCCCC(=O)N[C@H]1CSCc2cccc(c2)CSC[C@@H](C(=O)N[C@@H](CC(=O)O)C(N)=O)NC(=O)[C@H](Cc2ccccc2)NC(=O)[C@H](CCC(N)=O)NC(=O)[C@H]([C@@H](C)O)NC(=O)[C@@H]2CCCN2C(=O)[C@@H]2CCCN2C1=O
# B10: Pentyl-SO2-[Cys(3MeBn)-Pro-Pro-Thr-Gln-Phe-Cys]-Asp-NH2 (peptide)
# peptide: Pentanesulfonyl-CPPTQFCD-NH2
# modifications: linker 1-7 via mXylylene
# SMILES: CCCCCS(=O)(=O)N[C@H]1CSCc2cccc(c2)CSC[C@@H](C(=O)N[C@@H](CC(=O)O)C(N)=O)NC(=O)[C@H](Cc2ccccc2)NC(=O)[C@H](CCC(N)=O)NC(=O)[C@H]([C@@H](C)O)NC(=O)[C@@H]2CCCN2C(=O)[C@@H]2CCCN2C1=O
# B11: Hex-[Cys(2Lut)-Pro-Pro-Thr-Gln-Phe-Cys]-Asp-NH2 (peptide)
# peptide: Hexanoyl-CPPTQFCD-NH2
# modifications: linker 1-7 via 2Lut
# B12: Hex-[Cys(3Lut)-Pro-Pro-Thr-Gln-Phe-Cys]-Asp-NH2 (peptide)
# peptide: Hexanoyl-CPPTQFCD-NH2
# modifications: linker 1-7 via 3Lut
# B13: Hex-[Cys(tMeBn(InDOTA-PP))-Pro-Pro-Thr-Gln-Phe-Cys]-Asp-NH2 (peptide)
# peptide: Hexanoyl-CPPTQFCD-NH2
# modifications: linker 1-7 via tMeBn(InDOTA-PP); also: In-DOTA complex
# B14: Hex-[Cys(tMeBn(LuDOTA-PP))-Pro-Pro-Thr-Gln-Phe-Cys]-Asp-NH2 (peptide)
# peptide: Hexanoyl-CPPTQFCD-NH2
# modifications: linker 1-7 via tMeBn(LuDOTA-PP); also: Lu-DOTA complex
# B15: Hex-[Cys(tMeBn(GaDOTA-PP))-Pro-Pro-Thr-Gln-Phe-Cys]-Asp-NH2 (peptide)
# peptide: Hexanoyl-CPPTQFCD-NH2
# modifications: linker 1-7 via tMeBn(GaDOTA-PP)
# B16: Hex-[Cys(tMeBn(DOTA-AET))-Pro-Pro-Thr-Glu-Phe-Cys]-NH2 (peptide)
# peptide: Hexanoyl-CPPTEFC-NH2
# modifications: linker 1-7 via tMeBn(DOTA-AET)
# B17: Hex-[Cys(tMeBn(DOTA-AET))-Pro-Pro-Thr-Gln-Phe-Cys]-Ser-OH (peptide)
# peptide: Hexanoyl-CPPTQFCS-OH
# modifications: linker 1-7 via tMeBn(DOTA-AET)
# B18: Hex-[Cys(tMeBn(EuDOTA-PP))-Pro-Pro-Thr-Gln-Phe-Cys]-Asp-NH2 (peptide)
# peptide: Hexanoyl-CPPTQFCD-NH2
# modifications: linker 1-7 via tMeBn(EuDOTA-PP); also: Eu-DOTA complex
# B19: Hex-[Cys(tMeBn(DOTA-AET))-Pro-Pro-Thr-Gln-Phe-Cys]-Asp-OH (peptide)
# peptide: Hexanoyl-CPPTQFCD-OH
# modifications: linker 1-7 via tMeBn(DOTA-AET)
# B20: Hex-[Cys(tMeBn(DOTA-AET))-Pro-Pro-Thr-Gln-Phe-Cys]-asp-NH2 (peptide)
# peptide: CPPTQFCD
# modifications: N-terminal Hex (hexanoyl); Cys1-Cys7 bridged by tMeBn(DOTA-AET) (thioethers); D-Asp8 (asp); C-terminal amide
# B21: Pentyl-SO2-[Cys(tMeBn(DOTA-PP))-Pro-Pro-Thr-Gln-Phe-Cys]-Asp-NH2 (peptide)
# peptide: Pentanesulfonyl-CPPTQFCD-NH2
# modifications: linker 1-7 via tMeBn(DOTA-PP)
# B22: Hex-[Cys(tMeBn(DOTA-AET))-Pro-Pro-Thr-Gln-Phe-Cys]-OH (peptide)
# peptide: Hexanoyl-CPPTQFC-OH
# modifications: linker 1-7 via tMeBn(DOTA-AET)
# B23: Hex-[Cys(tMeBn(InDOTA-AET))-Pro-Pro-Thr-Gln-Phe-Cys]-OH (peptide)
# peptide: Hexanoyl-CPPTQFC-OH
# modifications: linker 1-7 via tMeBn(InDOTA-AET); also: In-DOTA complex
# B24: Hex-[Cys(tMeBn(LuDOTA-AET))-Pro-Pro-Thr-Gln-Phe-Cys]-OH (peptide)
# peptide: Hexanoyl-CPPTQFC-OH
# modifications: linker 1-7 via tMeBn(LuDOTA-AET); reading uncertain; also: Lu-DOTA complex, printed as Hex-[Cys(tMeBn(LuDOTA-AET))-Pro-Pro-Thr-Gln-Phe-Cys]-OH
# B25: Hex-[Cys(tMeBn(DOTA-AET))-Pro-Pro-Thr-Gln-Phe-Cys]-NH2 (peptide)
# peptide: Hexanoyl-CPPTQFC-NH2
# modifications: linker 1-7 via tMeBn(DOTA-AET)
# B26: Hex-[Cys(tMeBn(EuDOTA-AET))-Pro-Pro-Thr-Gln-Phe-Cys]-OH (peptide)
# peptide: Hexanoyl-CPPTQFC-OH
# modifications: linker 1-7 via tMeBn(EuDOTA-AET); also: Eu-DOTA complex
# B27: Pentyl-SO2-[Cys(tMeBn(DOTA-AET))-Pro-Pro-Thr-Gln-Phe-Cys]-OH (peptide)
# peptide: Pentanesulfonyl-CPPTQFC-OH
# modifications: linker 1-7 via tMeBn(DOTA-AET)
# B28: Hex-[Cys(tMeBn(InDOTA-AET))-Pro-Pro-Thr-Gln-Phe-Cys]-NH2 (peptide)
# peptide: Hexanoyl-CPPTQFC-NH2
# modifications: linker 1-7 via tMeBn(InDOTA-AET); also: In-DOTA complex
# B29: Hex-[Cys(3MeBn)-Ala-Pro-Thr-Glu-Phe-Cys]-NH2 (peptide)
# peptide: Hexanoyl-CAPTEFC-NH2
# modifications: linker 1-7 via mXylylene
# SMILES: CCCCCC(=O)N[C@H]1CSCc2cccc(c2)CSC[C@@H](C(N)=O)NC(=O)[C@H](Cc2ccccc2)NC(=O)[C@H](CCC(=O)O)NC(=O)[C@H]([C@@H](C)O)NC(=O)[C@@H]2CCCN2C(=O)[C@H](C)NC1=O
# Molecular target: T1, Recombinant human FAP (R&D systems, #3715-SE) (human)
# Experiment: not given
# Conditions: not given
row,Binder,pIC50 Category (Activity) [pIC50]
1,B1,> 8
2,B2,> 8
3,B3,> 8
4,B4,> 8
5,B5,> 8
6,B6,> 8
7,B7,> 8
8,B8,> 8
9,B9,> 8
10,B10,> 8
11,B11,> 8
12,B12,> 8
13,B13,> 8
14,B14,> 8
15,B15,> 8
16,B16,> 8
17,B17,> 8
18,B18,> 8
19,B19,> 8
20,B20,> 8
21,B21,> 8

# Molecular target: T2, human fibroblast activation protein (FAP) on FAP-expressing human WI-38 fibroblasts (human)
# Experiment: competition FACS, WI-38 cells, vs Cy5-labeled compound; A: pIC50 >8.0
# Conditions: remark: other sources report otherwise
row,Binder,pIC50 Category (FACS) [pIC50]
1,B22,> 8
2,B23,> 8
3,B24,> 8
4,B25,> 8
5,B26,> 8
6,B27,> 8
7,B28,> 8
8,B4,> 8

# Molecular target: T2, human fibroblast activation protein …
# Experiment: competition FACS, WI-38 cells, vs Cy5-labeled compound; D: pIC50 ≤6.0
# Conditions: remark: other sources report otherwise
row,Binder,pIC50 Category (FACS) [pIC50]
1,B29,< 6
